In publication PMC4259493:
Read-outs that look alike come from different tables or passages of the source.

Key:
Test in all cases: MST
[1] = target: α-actinin-2 wild-type, full length (human) (UniProt P35609)
[2] = target: α-actinin-2 calmodulin-like domain (CAMD, EF1-4) (human)
[3] = target: α-actinin-2 wild-type, full length (human) (UniProt P35609); remark: listed apart in the source

Sequence of α-actinin-2 wild-type, full length (human) (P35609 whole entry, the tested form may be a part): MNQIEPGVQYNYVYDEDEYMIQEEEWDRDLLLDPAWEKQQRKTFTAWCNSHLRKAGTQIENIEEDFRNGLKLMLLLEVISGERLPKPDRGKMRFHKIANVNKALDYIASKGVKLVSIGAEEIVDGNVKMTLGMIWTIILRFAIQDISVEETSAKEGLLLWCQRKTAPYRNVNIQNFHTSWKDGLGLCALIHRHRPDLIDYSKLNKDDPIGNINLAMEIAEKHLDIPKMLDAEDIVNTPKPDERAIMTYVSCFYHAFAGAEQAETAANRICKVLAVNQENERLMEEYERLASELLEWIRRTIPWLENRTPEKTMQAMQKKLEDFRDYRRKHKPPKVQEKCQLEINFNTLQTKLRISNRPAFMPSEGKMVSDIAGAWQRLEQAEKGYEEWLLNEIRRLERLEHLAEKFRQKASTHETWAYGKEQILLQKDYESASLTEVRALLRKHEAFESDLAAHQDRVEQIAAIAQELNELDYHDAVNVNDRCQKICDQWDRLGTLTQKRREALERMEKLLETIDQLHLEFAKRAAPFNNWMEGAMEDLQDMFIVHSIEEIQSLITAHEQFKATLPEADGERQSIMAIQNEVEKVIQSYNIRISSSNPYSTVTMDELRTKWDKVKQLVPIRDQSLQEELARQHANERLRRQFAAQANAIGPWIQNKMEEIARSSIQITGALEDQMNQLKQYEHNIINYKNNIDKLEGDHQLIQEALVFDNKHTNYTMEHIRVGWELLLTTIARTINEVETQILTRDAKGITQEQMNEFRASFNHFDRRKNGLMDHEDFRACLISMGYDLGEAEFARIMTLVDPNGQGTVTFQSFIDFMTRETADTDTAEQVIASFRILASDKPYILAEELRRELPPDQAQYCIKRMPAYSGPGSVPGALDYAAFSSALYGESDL
Sequence of titin Zr-7 construct (amino acids Lys 692 - Arg 740) (Q8WZ42 692-740): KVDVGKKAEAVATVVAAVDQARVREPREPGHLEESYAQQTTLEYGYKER
Sequence of α-actinin-2 calmodulin-like domain (CAMD, EF1-4) (human) (P35609 whole entry, the tested form may be a part): as the sequence (P35609 whole entry, the tested form may be a part) above

Kd [1]: 380 nM | Kd [2]: 240 nM | Kd [3]: 2900 nM
Substance: titin Zr-7 construct (amino acids Lys 692 - Arg 740) (from UniProt Q8WZ42 692-740) (domain or fragment)
